Source: patent US20180362645A1 (Amgen, published 2018)
Values joined by “and” are separate entries in the source; they are usually repeats but may differ in a detail not shown here. Equal values may be shown once. Where no end group is shown, it is not given here.

Legend:
human VPAC2 = biological target: T1, human VPAC2 (human, UniProt P41587 24-438); assay: cell-based or functional assay
T1 sequence (looked up): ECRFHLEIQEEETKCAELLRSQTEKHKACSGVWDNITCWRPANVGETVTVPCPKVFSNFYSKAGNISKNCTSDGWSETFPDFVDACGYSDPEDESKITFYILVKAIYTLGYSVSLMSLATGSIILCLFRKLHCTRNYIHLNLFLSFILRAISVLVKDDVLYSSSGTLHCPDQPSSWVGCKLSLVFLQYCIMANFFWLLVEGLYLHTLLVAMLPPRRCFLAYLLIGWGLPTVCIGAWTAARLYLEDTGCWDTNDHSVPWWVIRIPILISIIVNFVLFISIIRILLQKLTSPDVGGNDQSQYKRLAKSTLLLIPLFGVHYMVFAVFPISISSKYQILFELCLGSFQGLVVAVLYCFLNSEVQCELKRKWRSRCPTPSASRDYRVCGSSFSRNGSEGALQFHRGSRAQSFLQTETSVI

cyno PAC1 = cyno PAC1 (cynomolgus); assay: cell-based or functional assay
human VPAC1 = biological target: T2, human VPAC1 (human, UniProt P32241 31-457); assay: cell-based or functional assay
T2 sequence (looked up): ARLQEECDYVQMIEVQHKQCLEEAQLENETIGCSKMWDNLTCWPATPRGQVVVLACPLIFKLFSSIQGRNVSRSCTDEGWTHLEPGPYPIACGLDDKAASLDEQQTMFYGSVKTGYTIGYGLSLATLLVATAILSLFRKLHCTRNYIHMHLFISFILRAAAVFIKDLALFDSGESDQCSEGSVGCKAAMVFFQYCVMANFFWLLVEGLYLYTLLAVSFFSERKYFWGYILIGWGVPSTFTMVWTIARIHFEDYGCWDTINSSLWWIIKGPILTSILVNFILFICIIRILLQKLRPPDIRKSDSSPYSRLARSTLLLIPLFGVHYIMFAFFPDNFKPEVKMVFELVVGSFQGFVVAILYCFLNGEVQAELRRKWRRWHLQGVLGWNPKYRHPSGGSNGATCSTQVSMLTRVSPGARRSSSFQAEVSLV

[1] = biological target: T3, human pituitary adenylate cyclase-activating polypeptide type I receptor (human, UniProt P41586 21-468); assay: radioligand competition, hPAC1 CHO membranes; competitor 125I-28A
T3 construct: whole, on cells; On SH-SY5Y or recombinant CHO cells (cAMP assay), as membranes of hPAC-1 AequoScreen CHO cells (radioligand assay) and on CHOK1/huPac1 whole cells (KinExA); also called human PAC1; hPAC1
T3 sequence (looked up): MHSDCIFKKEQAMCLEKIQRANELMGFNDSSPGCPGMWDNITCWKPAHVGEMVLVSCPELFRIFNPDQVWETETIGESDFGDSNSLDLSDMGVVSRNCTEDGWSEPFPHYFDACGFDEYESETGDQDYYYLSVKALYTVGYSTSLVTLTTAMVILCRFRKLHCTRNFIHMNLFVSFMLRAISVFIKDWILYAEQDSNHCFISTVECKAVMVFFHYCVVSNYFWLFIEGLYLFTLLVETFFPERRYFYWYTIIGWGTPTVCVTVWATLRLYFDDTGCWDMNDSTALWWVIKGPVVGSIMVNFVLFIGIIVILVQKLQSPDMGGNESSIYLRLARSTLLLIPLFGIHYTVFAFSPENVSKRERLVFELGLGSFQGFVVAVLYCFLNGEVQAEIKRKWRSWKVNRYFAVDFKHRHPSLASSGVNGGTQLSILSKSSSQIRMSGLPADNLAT
Procedure: (§1) The plates were incubated at room temperature for 2 hours with shaking at 60 rpm, and then the contents of each well were filtered over 0.5% polyethyleneimine (PEI)-treated (for at least two hours) GF/C 96-well filter plates. The GF/C filter plates were washed five times with ice-cold 50 mM Tris, pH 7.5 and dried in an oven at 55° C. for 1 hour. The bottoms of the GF/C plates were then sealed. 40 μl Microscint™ 20 was added to each well, the tops of the GF/C plates were sealed with TopSeal™-A (a press-on adhesive sealing film), and the GF/C plates were counted with TopCount NXT (Packard). The data were analyzed using Prizm (GraphPad Software Inc.)

[2] = biological target: T3, human pituitary adenylate …; assay: radioligand competition, hPAC1 CHO membranes; competitor 125I-29A
Procedure: as §1

[3] = biological target: T3, human pituitary adenylate …; assay: KinExA, CHOK1/huPac1 whole cells
Procedure: Binding of anti-Pac1 antibody with CHOK1/huPac1 cells were tested on KinExA. […] Samples containing anti-Pac1 antibody and whole cells were incubated with rotation at room temperature for 4 hours before 5-minute 220-g centrifugation at 4° C. to separate the whole cells and anti-Pac1 antibody-cell complexes from unbound anti-Pac1 antibody. The supernatants containing free anti-Pac1 antibody were filtered through 0.22 μm filter before loading to the goat-anti-huFc-coated beads on KinExA. […] The binding signal is proportional to the concentration of free anti-Pac1 antibody in solution at each cell density. Equilibrium dissociation constant (KD) was estimated by n-curve analysis in KinExA™ Pro software (Sapidyne Instruments, Inc., Boise, Id.).

[4] = biological target: T3, human pituitary adenylate …; assay: radioligand competition, hPAC1 CHO membranes; competitor 125I-14A
Procedure: as §1

[5] = biological target: T3, human pituitary adenylate …; assay: radioligand competition, hPAC1 CHO membranes; competitor 125I-29B
Procedure: as §1

[6] = biological target: T3, human pituitary adenylate …; assay: radioligand competition, hPAC1 CHO membranes; competitor 125I-14B
Procedure: as §1

[7] = biological target: T3, human pituitary adenylate …; assay: radioligand competition, hPAC1 CHO membranes; competitor 125I-01B
Procedure: as §1

[8] = biological target: T3, human pituitary adenylate …; assay: radioligand competition, hPAC1 CHO membranes; competitor 125I-26B
Procedure: as §1

[9] = biological target: T3, human pituitary adenylate …; assay: radioligand competition, hPAC1 CHO membranes; competitor 125I-39B
Procedure: as §1

[10] = biological target: T3, human pituitary adenylate …; assay: radioligand competition, hPAC1 CHO membranes; competitor 125I-39A
Procedure: as §1

[11] = biological target: T3, human pituitary adenylate …; assay: radioligand competition, hPAC1 CHO membranes; competitor 125I-26A
Procedure: as §1

VPAC2 = biological target: T4, VPAC2; assay: cell-based or functional assay
T4 sequence (P41587 whole entry, species assumed, looked up): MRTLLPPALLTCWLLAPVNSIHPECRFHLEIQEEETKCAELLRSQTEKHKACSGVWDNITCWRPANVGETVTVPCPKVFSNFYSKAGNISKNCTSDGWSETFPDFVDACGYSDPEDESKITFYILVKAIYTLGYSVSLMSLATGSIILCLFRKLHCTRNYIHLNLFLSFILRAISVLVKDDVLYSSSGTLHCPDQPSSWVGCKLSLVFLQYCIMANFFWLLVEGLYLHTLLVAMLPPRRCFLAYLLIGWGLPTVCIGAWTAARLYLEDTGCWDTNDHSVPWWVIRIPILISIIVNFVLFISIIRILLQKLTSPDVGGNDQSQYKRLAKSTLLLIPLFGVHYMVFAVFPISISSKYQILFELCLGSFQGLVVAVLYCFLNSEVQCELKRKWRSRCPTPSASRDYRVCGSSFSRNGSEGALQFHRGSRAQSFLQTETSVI

B1: 26B (antibody, human IgG1, kappa, N297G)
heavy: not shown
light: DIQLTQSPSFLSASVGDRVTITCRASQSIGRSLHWYQQKPGKAPKLLIKYASQSLSGVPSRFSGSGSGTEFTLTISSLQPEDFATYYCHQSSRLPFTFGPGTKVDIKRTVAAPSVFIFPPSDEQLKSGTASVVCLLNNFYPREAKVQWKVDNALQSGNSQESVTEQDSKDSTYSLSSTLTLSKADYEKHKVYACEVTHQGLSSPVTKSFNRGEC
Human VPAC2
  hVPAC2 IC50 (cAMP assay): > 10000 nM
Cyno PAC1
  cyno PAC1 IC50 (cAMP assay): 1.3 nM
Human VPAC1
  hVPAC1 IC50 (cAMP assay): > 10000 nM

B2: 03A (antibody, human IgG2, kappa, V domains shown)
VH: QVQLVESGGGVVQPGRSLRLSCAASGFTFSYYAIHWVRQAPGKGLEWVAVISYDGSNKYYADSVKGRFTISRDNSKNTLYLQMNSLRAEDTAVYYCARGYDLLTGYPDYWGQGTLVTVSS
VL: DIQLTQSPSFLSASVGDRVTITCRASQSIGRSLHWYQQKPGKAPKLLIKYASQSLSGVPSRFSGSGSGTEFTLTISSLQPEDFATYYCHQSSRLPFTFGPGTKVDIKR
notes: also called LC-03 and HC-03
[1]
  Ki: 0.01 nM
[2]
  Ki: 0.14 nM
[3]
  Kd: 0.126 nM

B3: 28A (antibody, human IgG2, kappa, V domains shown)
VH: QVQLVESGGGVVQPGRSLRLSCAASGFTFSRYAMHWVRQASGKGLEWVAVISYDGSNKYYADSVKGRFTISRDNSKNTLYLLMSSLRAEDTAVFYCARGYDILTGYPDYWGQGTLVTVSS
VL: EIVLTQSPDFQSVTPKEKVTITCRASQSIGRSLHWYQQKPDQSPKLLFKYASQSLSGVPSRFSGSGSGTDFTLTINSLEAEDAATYYCHQSSRLPFTFGPGTKVDIKR
notes: also called LC-10 and HC-39
[1]
  Ki: < 0.01 nM
[2]
  Ki: 0.04 nM

B4: 29A (antibody, human IgG2, kappa)
heavy: QVQLVESGGGVVQPGRSLRLSCAASGFTFSRYAMHWVRQASGKGLEWVAVISYDGSNKYYADSVKGRFTISRDNSKNTLYLLMSSLRAEDTAVFYCARGYDILTGYPDYWGQGTLVTVSSASTKGPSVFPLAPCSRSTSESTAALGCLVKDYFPEPVTVSWNSGALTSGVHTFPAVLQSSGLYSLSSVVTVPSSNFGTQTYTCNVDHKPSNTKVDKTVERKCCVECPPCPAPPVAGPSVFLFPPKPKDTLMISRTPEVTCVVVDVSHEDPEVQFNWYVDGVEVHNAKTKPREEQFNSTFRVVSVLTVVHQDWLNGKEYKCKVSNKGLPAPIEKTISKTKGQPREPQVYTLPPSREEMTKNQVSLTCLVKGFYPSDIAVEWESNGQPENNYKTTPPMLDSDGSFFLYSKLTVDKSRWQQGNVFSCSVMHEALHNHYTQKSLSLSPGK
light: DIQLTQSPSFLSASVGDRVTITCRASQSIGRSLHWYQQKPGKAPKLLFKYASQSLSGVPSRFSGSGSGTEFTLTISSLQPEDFATYYCHQSSRLPFTFGPGTKVDIKRTVAAPSVFIFPPSDEQLKSGTASVVCLLNNFYPREAKVQWKVDNALQSGNSQESVTEQDSKDSTYSLSSTLTLSKADYEKHKVYACEVTHQGLSSPVTKSFNRGEC
notes: also called LC-11 and HC-39
[4]
  Ki: 0.07 nM
[5]
  Ki: 0.09 nM
[6]
  Ki: 0.1 nM
[7]
  Ki: 0.13 nM
[8]
  Ki: 0.11 nM
[9]
  Ki: 0.08 nM
[10]
  Ki: 0.06 nM
[2]
  Ki: 0.04 nM
[11]
  Ki: 0.03 nM
[3]
  Kd: 0.013 nM

B5: 05A (antibody, human IgG2, kappa, V domains shown)
VH: QVQLVESGGGVVQPGRSLRLSCAASGFTFSRFAMHWVRRAPGKGLEWVAVISYDGGNKYYAESVKGRFTISRDNSKNTLNLLMNSLRAEDTALFYCARGYDVLTGYPDYWGQGTLVTVSS
VL: DIQLTQSPSFLSASVGDRVTITCRASQSIGRSLHWYQQKPGKAPKLLIKYASQSLSGVPSRFSGSGSGTEFTLTISSLQPEDFATYYCHQSSRLPFTFGPGTKVDIKR
notes: also called LC-05 and HC-06
[1]
  Ki: 0.02 nM
[2]
  Ki: 0.03 nM

B6: 14B (antibody, human IgG1, kappa, N297G)
heavy: not shown
light: EIVLTQSPATLSLSPGERATLSCRASQSVGRSLHWYQQKPGQAPRLLIKYASQSLSGIPARFSGSGSGTDFTLTISSLEPEDFAVYYCHQSSRLPFTFGPGTKVDIKRTVAAPSVFIFPPSDEQLKSGTASVVCLLNNFYPREAKVQWKVDNALQSGNSQESVTEQDSKDSTYSLSSTLTLSKADYEKHKVYACEVTHQGLSSPVTKSFNRGEC
Human VPAC2
  hVPAC2 IC50 (cAMP assay): > 10000 nM
Cyno PAC1
  cyno PAC1 IC50 (cAMP assay): 0.6 nM
Human VPAC1
  hVPAC1 IC50 (cAMP assay): > 10000 nM

## HSDGIFTDSYSRYRKQMAVKKYLAAVLGKRYKQRVKNK (ligand, UniProt P18509 132-169, looked up, ends and bridges not checked) [PACAP38]
VPAC2
  VPAC2 EC50 (agonist activity): 0.06 nM

B7: 38A (antibody, human IgG2, kappa, V domains shown)
VH: QVQLQESGPGLVKPSQTLSLTCTVSGGSISRGGYYWSWIRQHPGKGLEWIGYIYYSGNTYYNPSLKSRVIISGDTSKNQLSLKLRSVTAADTAVYYCARGGAARGMDVWGQGTTVTVSS
VL: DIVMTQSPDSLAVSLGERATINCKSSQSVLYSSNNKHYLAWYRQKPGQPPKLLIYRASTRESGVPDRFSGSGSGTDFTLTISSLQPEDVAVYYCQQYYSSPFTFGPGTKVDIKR
notes: also called LC-18 and HC-50
[4]
  Ki: 0.07 nM
[10]
  Ki: 0.11 nM
[11]
  Ki: 0.07 nM
[3]
  Kd: 0.016 nM

B8: 39A (antibody, human IgG2, kappa)
heavy: QVQLQESGPGLVKPSQTLSLTCTVSGGSISSGGYYWSWIRQHPGKGLEWIGYIYYSGNTYYNPSLKSRVTISGDTSKNQFSLKLRSVTAADTAVYYCTRGGAARGMDVWGQGTTVTVSSASTKGPSVFPLAPCSRSTSESTAALGCLVKDYFPEPVTVSWNSGALTSGVHTFPAVLQSSGLYSLSSVVTVPSSNFGTQTYTCNVDHKPSNTKVDKTVERKCCVECPPCPAPPVAGPSVFLFPPKPKDTLMISRTPEVTCVVVDVSHEDPEVQFNWYVDGVEVHNAKTKPREEQFNSTFRVVSVLTVVHQDWLNGKEYKCKVSNKGLPAPIEKTISKTKGQPREPQVYTLPPSREEMTKNQVSLTCLVKGFYPSDIAVEWESNGQPENNYKTTPPMLDSDGSFFLYSKLTVDKSRWQQGNVFSCSVMHEALHNHYTQKSLSLSPGK
light: not shown
notes: also called 39A lot1; 39A lot2
[4]
  Ki: 0.2 nM
[5]
  Ki: 0.08 nM and 0.14 nM
[6]
  Ki: 0.24 nM and 0.43 nM
[7]
  Ki: 0.3 nM and 0.15 nM
[8]
  Ki: 0.17 nM and 0.14 nM
[9]
  Ki: 0.2 nM and 0.18 nM
[10]
  Ki: 0.16 nM
[11]
  Ki: 0.13 nM
[3]
  Kd: 0.036 nM
